# B1: Eukaryotic translation initiation factor 5 (Saccharomyces cerevisiae), P38431 (parent)
# chain: MSINICRDNHDPFYRYKMPPIQAKVEGRGNGIKTAVLNVADISHALNRPAPYIVKYFGFELGAQTSISVDKDRYLVNGVHEPAKLQDVLDGFINKFVLCGSCKNPETEIIITKDNDLVRDCKACGKRTPMDLRHKLSSFILKNPPDSVSGSKKKKKAATASANVRGGGLSISDIAQGKSQNAPSDGTGSSTPQHHDEDEDELSRQIKAAASTLEDIEVKDDEWAVDMSEEAIRARAKELEVNSELTQLDEYGEWILEQAGEDKENLPSDVELYKKAAELDVLNDPKIGCVLAQCLFDEDIVNEIAEHNAFFTKILVTPEYEKNFMGGIERFLGLEHKDLIPLLPKILVQLYNNDIISEEEIMRFGTKSSKKFVPKEVSKKVRRAAKPFITWLETAESDDDEEDDE
# B2: Eukaryotic translation initiation factor 5 (Saccharomyces cerevisiae), P38431 (parent)
# chain: B1 chain
# partner: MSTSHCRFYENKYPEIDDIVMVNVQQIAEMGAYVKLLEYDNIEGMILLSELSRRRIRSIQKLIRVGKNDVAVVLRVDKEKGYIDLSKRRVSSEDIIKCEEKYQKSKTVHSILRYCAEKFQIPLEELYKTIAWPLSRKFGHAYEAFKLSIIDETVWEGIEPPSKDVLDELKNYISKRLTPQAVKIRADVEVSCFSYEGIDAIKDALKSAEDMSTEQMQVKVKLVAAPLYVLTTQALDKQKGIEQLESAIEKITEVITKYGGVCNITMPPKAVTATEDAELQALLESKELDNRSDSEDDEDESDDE
# Variants of: B1
# Conditions: with if2g_yeast GCD11, P32481
# Sequence of if2g_yeast GCD11, P32481 (P32481 whole entry): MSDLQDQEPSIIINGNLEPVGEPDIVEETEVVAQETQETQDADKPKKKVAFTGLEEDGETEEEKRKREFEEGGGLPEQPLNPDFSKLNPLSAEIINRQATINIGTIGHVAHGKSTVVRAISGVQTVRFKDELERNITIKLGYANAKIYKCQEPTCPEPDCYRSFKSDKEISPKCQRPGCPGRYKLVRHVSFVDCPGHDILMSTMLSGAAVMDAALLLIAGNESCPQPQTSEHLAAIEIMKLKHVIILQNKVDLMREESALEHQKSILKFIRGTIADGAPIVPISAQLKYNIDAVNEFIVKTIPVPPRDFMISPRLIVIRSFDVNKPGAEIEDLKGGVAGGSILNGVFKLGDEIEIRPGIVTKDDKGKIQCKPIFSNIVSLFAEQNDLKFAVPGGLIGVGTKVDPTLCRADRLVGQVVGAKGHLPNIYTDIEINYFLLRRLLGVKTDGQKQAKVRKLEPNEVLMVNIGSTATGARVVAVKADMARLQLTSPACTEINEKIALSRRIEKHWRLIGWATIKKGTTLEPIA
row,effect of a mutation on the interaction,Variant
1,decreasing interaction,MSINICRDNHDPFYRYKMPPIQAKVEGRGNGIKTAVLNVADISHALNRPAPYIVKYFGFELGAQTSISVDKDRYLVNGVHEPAKLQDVLDGFINKFVLCGSCKNPETEIIITKDNDLVRDCKACGKRTPMDLRHKLSSFILKNPPDSVSGSKKKKKAATASANVRGGGLSISDIAQGKSQNAPSDGTGSSTPQHHDEDEDELSRQIKAAASTLEDIEVKDDEWAVDMSEEAIRARAKELEVNSELTQLDEYGEWILEQAGEDKENLPSDVELYKKAAELDVLNDPKIGCVLAQCLFDEDIVNEIAEHNAFFTKILVTPEYEKNFMGGIERFLGLEHKDLIPLLPKILVQLYNNDIISEEEIMRFGTKSSKKFVPKEVSKKVRRAAKPFITFLETAESDDDEEDDE [W391F]

# Variants of: B2
# Conditions: with if2a_yeast SUI2, P20459
row,effect of a mutation on the interaction,Variant
1,decreasing interaction,MSINICRDNHDPFYRYKMPPIQAKVEGRGNGIKTAVLNVADISHALNRPAPYIVKYFGFELGAQTSISVDKDRYLVNGVHEPAKLQDVLDGFINKFVLCGSCKNPETEIIITKDNDLVRDCKACGKRTPMDLRHKLSSFILKNPPDSVSGSKKKKKAATASANVRGGGLSISDIAQGKSQNAPSDGTGSSTPQHHDEDEDELSRQIKAAASTLEDIEVKDDEWAVDMSEEAIRARAKELEVNSELTQLDEYGEWILEQAGEDKENLPSDVELYKKAAELDVLNDPKIGCVLAQCLFDEDIVNEIAEHNAFFTKILVTPEYEKNFMGGIERFLGLEHKDLIPLLPKILVQLYNNDIISEEEIMRFGTKSSKKFVPKEVSKKVRRAAKPFITFLETAESDDDEEDDE [W391F]
